Source: the nanobody polyreactivity screen of Harvey et al. (2022)

Test: yeast display, Sf9 membrane polyspecificity reagent, FACS + sequencing; frameworks hold sequencing errors
Outline: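 Nanobodies from a synthetic yeast display library (Saccharomyces cerevisiae BJ5465), induced 36–48 hours with galactose, were stained 1 hour at 4 °C with 10% biotinylated, detergent-solubilized Sf9 membrane reagent, enriched on streptavidin microbeads, then FACS-sorted. Anti-HA (expression) and streptavidin (reagent binding) fluorescence set low and high (top ~1%) gates. Polyreactivity labels come from the gate of origin. Genes were colony-PCR amplified, MiSeq 2 × 250 sequenced and filtered by CDR length.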

Sequence	polyreactivity (PSR sort gate)
QVQLVESGGGLVQAGGSLRLSCAASGRIFSWYTMGRYRQAPGKERELVADITYSGGSTYYADSVKGRFTISRDNAKNTVYLQMNSLKPEDTAVYYCNADPRWYHFEYGYWGQGTQVTVSS	high polyreactivity
QVQLVESGGGLVQAGGSLRLSCAASGRIFSWYTMGWYRQAPGKERELVAAISWSGTSTYYADSVKGRFTISRDNAKNTVYLQMNSLKPEDTAVYYCARVLSPYYSTRYDHWGQGTQVTVSS	high polyreactivity
QVQLVESGGGLVQAGGSLRLSCAASGRIFSYNAMGWDRQAPGKERELVSAISYGGGRTYYADSVKGRFTISRYNAKNTVYLQMNSLKPEDTAVYYCNRYGRQYDFFYWGQGTQVTGSS	high polyreactivity
QVQLVESGGGLVQAGGSLRLSCAASGRIFSYNAMGWYRQAPGKERELVAASTFSGGGTYYADSVKGRYTISRDNAKNPVYLQMNSLKPEDTAVYYCNNLSYGYSTYGYWGQGTQVTVSS	low polyreactivity
QVQLVESGGGLVQAGGSLRLSCAASGRIFSYYAMGWYRKAPGKERELVAAITSAGGTNYAVSVKGRFTISRDNAKITVYLQMNSLKPEDTAVYYCAADSSVLQNYYRYRYPYVTYNYWGQGTQVTVSS	low polyreactivity
QVQLVESGGGLVQAGGSLRLSCAASGRIFSYYAMGWYRQAPGKERELVAAISRGGTTNYADSVKGRFTISRDNAKNTVYLQMNSLKPEDTAVYYCNRDFHLIHLSSARLDYWGQGTQVTVSS	low polyreactivity
QVQLVESGGGLVQAGGSLRLSCAASGRIFSYYAMGWYRQAPGKERELVASISRSGGSTYYADSVKGRFTISRDNAKNTVYLQMNSLKPEDTAVYYCAAYKYVRSYPYDYWGQGTQVTVSS	low polyreactivity
QVQLVESGGGLVQAGGSLRLSCAASGRIFSYYAMGWYRQAPRKERELVAGINWRGGRTYYADTVKGRFTISRDNAKITGYLQMNSLKPEETAVYYCAGDHPETPYDYWGQGTQVTVSS	high polyreactivity
QVQLVESGGGLVQAGGSLRLSCAASGRIFTAYAMGWYRQAPGKERELVAAISSGDSTYYADSVKGRFTISRDNAKNTVYLQMNSLKPEDTAVYYCAAEGYLWGQSYNGLNYDSWGQGTQVTVSS	low polyreactivity
QVQLVESGGGLVQAGGSLRLSCAASGRIFTDNAMGWYRQEPGKERELVAAIRGSGSSTYYADSVKGRFTISRDNAKNTVYLQMNSLKPEDTAVYYCAARRAVYRGNYWGQGTQVTVSS	high polyreactivity
QVQLVESGGGLVQAGGSLRLSCAASGRIFTFNAMGWYRQAPGKERELVAAINSGGSRTYYADSVKGRFTISRDNAKNTVYLQMNSLKPEDTAVYYCAAGYSGWVRSSSPFYYWGQGTQVTVSS	high polyreactivity
QVQLVESGGGLVQAGGSLRLSCAASGRIFTFNAMGWYRQAPGKERELVAAIRRGGGRTYYADSVKGRFTISRDNAKNTVYLQMNSLKPEDTAVYYCAAPFYRQSLIEYDYWGQGTQVTVSS	high polyreactivity
QVQLVESGGGLVQAGGSLRLSCAASGRIFTFYAMGWSRQAPGKERELVAVITTGTSTTYADSVKGRFTISRDNAKNTVYLQMNSLKPEDTAVYYCAVDSWSRVQGWLAHNYDYWGQGTQVTVSS	low polyreactivity
QVQLVESGGGLVQAGGSLRLSCAASGRIFTGNARGWYRQAPGKERELVAGISTSGGSTYYADSVKGRFTISRDNAKNTVYLQMTSLTPEDTAVYYCAAAYVHYVYKYDYWGQGTQVTVSS	high polyreactivity
QVQLVESGGGLVQAGGSLRLSCAASGRIFTGYAMGWYRQAPGKERELVAAISRGGSTNYADSVKGRFTISRDNAMNTVYLQMNSLKAEDTSVYYCACGVHWDRGDYWGQGAQVTVSS	low polyreactivity
QVQLVESGGGLVQAGGSLRLSCAASGRIFTGYAMGWYRQAPGKERELVAAITASGGNTYYADSVKGRFTISRDNAKNTVYLQMNSLKPEDTAVYYCAAGWYDQPDDYTSAYGVTKYGYWGQGTQVTVSS	low polyreactivity
QVQLVESGGGLVQAGGSLRLSCAASGRIFTGYAMGWYRQAPGKERELVAVISSSTDRTYSADSVKGRFTISRDNAKNTVYFQMNSLKPEDTAVYYCAARPYRHKSRRYDYWGHGTQVTVSS	high polyreactivity
QVQLVESGGGLVQAGGSLRLSCAASGRIFTGYAMGWYRQAPGTERELVAAISDGGSTNYADSVKGRFTISRDNAKNTVYLQMNSLKPEDTAVYYCAADGHSSDKYDYWGQGTQVTVSS	low polyreactivity
QVQLVESGGGLVQAGGSLRLSCAASGRIFTHNAMGWYRQAPGKERELVAAISYSGVSTYYADSVKGRFTISRDNAKNTVYLQMNSLKPEDTAVYYCARDRWKWHYGYDYWGQGTQVTVSS	low polyreactivity
QVQLVESGGGLVQAGGSLRLSCAASGRIFTHNAMGWYRQAPGKERELVAAITWTGGSTYADSVKGRFTISRDNAKKTVYLQMNSLKPEDTAVYYCNARAHRYYLYDVQFGRGHSGGYWGQGTQVTVSS	low polyreactivity
QVQLVESGGGLVQAGGSLRLSCAASGRIFTHNSMGWYRQAPGKERELVAAISYSGVSTYYADSVKGRFTISRDTAKNTVFLQMNSLKPEDTAVYYCNAVWEYSGKSDYWGQGTQVSVSS	low polyreactivity
QVQLVESGGGLVQAGGSLRLSCAASGRIFTINAMGWYRQAPGKERELVAAISWSGVRTYYADSVKGRFTISRDNAKNTVYLQMNSLKPEDTAVYYCAKRRQYQRSYNYWGQGTQVTVSS	low polyreactivity

Sequence	polyreactivity (PSR sort gate)
QVQLVESGGGLVQAGGSLRLSCAASGRIFTINAMGWYRQAPGKERELVAVITRGGSTKYADSVKGRFTISRDNAKNTVYLQMNSLKPEDTAVYYCAARVRAGHGKNGYWGQGTQVTVSS	high polyreactivity
QVQLVESGGGLVQAGGSLRLSCAASGRIFTKYAMGWYRQAPGKDRELVAAISYRGGSTYYADSVKGRFTISRDNAQNTVYLQMNSLKPEDTAVYYCATSWTPNYFVTSDYWGQGTQVTVSS	high polyreactivity
QVQLVESGGGLVQAGGSLRLSCAASGRIFTKYAMGWYRQAPGKERELVATITRNGGSTYYADSVKGRFTISRDNAKNTVYLQMNSLKPEDTAVYYCAADKRYKLDYWGQGTQVTVSS	high polyreactivity
QVQLVESGGGLVQAGGSLRLSCAASGRIFTLYAMGWYRQAPGKERELVAGISRSGGSTYYADSVKGRFTISRDNAKNTVYLQMNSLKPEDTAVYYCNAVPIYYAWRRNKPFDYWGQGTQVTVSS	low polyreactivity
QVQLVESGGGLVQAGGSLRLSCAASGRIFTNNAMGWYRPAPGKERELVAAISRSGGRTYYADSVKGRFTISRDNAKNTVYLQMNSLKPEDTAVYYCAAVHLYYGYNSPFTMDYWGQGTQVTVSS	high polyreactivity
QVQLVESGGGLVQAGGSLRLSCAASGRIFTPYAMGWYRQAPGKERELVATISRGTSTSYADSVKGRFTISRDNAKNTVYLQMNSLKPEDTAVYYCAALGPRTTFRYTSYYYWGQGTQVTVSS	high polyreactivity
QVQLVESGGGLVQAGGSLRLSCAASGRIFTPYAMGWYRQAPGKERELVAVIRDGSTYYADSVKGRFTISRDNAKNTVYIQMNSLKPEDTAVYYCRYDIWVWWSGAYDYWGQGTQVTVSS	low polyreactivity
QVQLVESGGGLVQAGGSLRLSCAASGRIFTQYAMGWYRQAPGKERELVAAINASDGSTYYADSVKGRFTISRDNAKNTVYLQMNSLKPEDTAVYYCAGYAYNAIEYGYWGQGTQVTVSS	low polyreactivity
QVQLVESGGGLVQAGGSLRLSCAASGRIFTRNAMGWYRQAPGKEREFVAAISSSGSSTYFADSVKGRFTISRDNAKNTVYLQMNSLKPEDTAVYYCAARVTSPVSHDRVDYWGQGTQVTVSS	high polyreactivity
QVQLVESGGGLVQAGGSLRLSCAASGRIFTRNAMGWYRQAPGKEREFVAAISWSGGSTYYADSVKGRFTISRDNAKNTFYLQMNSLKPEDTAVYFCAAKNSGGYVSWYDYWGQGTQVTVSS	low polyreactivity
QVQLVESGGGLVQAGGSLRLSCAASGRIFTRNAMGWYRQAPGKERELVATISAGGGRTSYADSVKGRFTISRDNAKNTVELQMNSLKPEDTAVYYCAARGQVGYYWGQGTQVTVSS	high polyreactivity
QVQLVESGGGLVQAGGSLRLSCAASGRIFTRNAMGWYRQAPGKERELVATISAGGGRTSYADSVKGRFTISRDNAKNTVYLQMNSLKPEDTAVYYCAARGQVGYYWGQGTQVTVSS	high polyreactivity
QVQLVESGGGLVQAGGSLRLSCAASGRIFTRNGMGWYRQAPGKERELVAASTRGGRTNYADSVKGRFTISRDNAKNTVYLQMNSLKPEDTAVYYCAAGFPWSYYGSYDYWGQGTQVTVSS	high polyreactivity
QVQLVESGGGLVQAGGSLRLSCAASGRIFTRNVMGWYRQAPGKERELVARINSGGRTYYADSVKGRFTISRDNAKNTVYLQMNSLKPEDTAVYYCAVPFYWYSPMDSWGQGTQVTVSS	high polyreactivity
QVQLVESGGGLVQAGGSLRLSCAASGRIFTRYAMGWNRQAPGKETELGAAITASGGRTYYADSVKGRFTISRDNAKNTVYLQMNSLKPEDTAVYYCAATYHRYYETQDSYDYWGQGTQLTVSS	high polyreactivity
QVQLVESGGGLVQAGGSLRLSCAASGRIFTRYAMGWYRQAPGKERELVAAITYNGGSTYYADSVKGRFTISRDNAKNTVYLQMNSLKPEDTAVYYCNAVYLSWFGLYAGFDYWGQGTQVTVSS	high polyreactivity
QVQLVESGGGLVQAGGSLRLSCAASGRIFTRYAMGWYRQAPGKERELVATITRRGGSTYYADSVKGRFTISRDNAKNTVYLQMNSLKPEDTAVYYCAKDRTTSSFGEYDYWGQGTQVTVSS	high polyreactivity
QVQLVESGGGLVQAGGSLRLSCAASGRIFTRYAMGWYRQAPGKERELVSAISSGGSTYYADSVKGRFTISRDNAKNTVYLQMNSLKPEDTAVYYCAAKTRPQRTYSTRQQMNYWGQGTQVTVSS	high polyreactivity
QVQLVESGGGLVQAGGSLRLSCAASGRIFTSYTMGWYRQAPGKERELVAAISASGASTYYADSVKGRFTISRDNAKNTVYLQMNSLKPEDSAVYYCATVRPRERRGYWGQGTQVTVSS	high polyreactivity
QVQLVESGGGLVQAGGSLRLSCAASGRIFTSYVMGWYRQAPGKERELVAAITSSGGSTYYADSVKGRFTISRDNAKNTVYLQMNSLKPEDTAVYYCAAATRGSGRRYDYWGQGTQVTVSS	high polyreactivity
QVQLVESGGGLVQAGGSLRLSCAASGRIFTTNTMGWYRQAPGKERELVARITYSGTSTYYADSVKGRFTISRDNAKNTVYLQMNSLKPEDTAVYYCAAKVWWRKYLLQDYYYWGQGTQVTVSS	high polyreactivity
